Consider 10 substances from patent US20190127457A1.

Assay [1] has as its target human neonatal Fc-receptor (FcRn) (human) (UniProt P55899). Description: FcRn affinity chromatography, symmetrically modified anti-HER2 antibody.
Assay [2] shares this target. Briefly: FcRn affinity chromatography.

human neonatal Fc-receptor (FcRn) (human), sequence (P55899 24-297 limits assumed, chain 1 of 2): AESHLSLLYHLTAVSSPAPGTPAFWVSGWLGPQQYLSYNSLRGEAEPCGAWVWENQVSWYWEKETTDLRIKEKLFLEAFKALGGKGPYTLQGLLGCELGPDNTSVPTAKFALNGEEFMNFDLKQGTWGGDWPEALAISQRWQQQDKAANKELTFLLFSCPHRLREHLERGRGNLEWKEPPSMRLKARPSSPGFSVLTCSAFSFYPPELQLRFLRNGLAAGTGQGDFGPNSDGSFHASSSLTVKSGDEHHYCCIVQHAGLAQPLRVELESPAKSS
human neonatal Fc-receptor (FcRn) (human), sequence (P61769 21-119 limits assumed, chain 2 of 2, further chain): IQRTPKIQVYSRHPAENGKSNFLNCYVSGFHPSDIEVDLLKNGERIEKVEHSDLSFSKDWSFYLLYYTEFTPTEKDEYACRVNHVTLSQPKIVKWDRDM

anti-HER2 antibody, R255D (symmetric) came in with a retention time in assay [1] of 41.4 min. Substance “IgG1 Fc-region with L234A/L235A/P329G and Y436A (symmetric)” had a FcRn-affinity column retention time in assay [2] of 41.3 min. For “bispecific antibody (knobs-into-holes), first chain with I253A/H310A/H435A and second chain with H310A”, in assay [2], the RT [min] (retention time on the FcRn affinity column) is 0 min. In assay [1], anti-HER2 antibody, E258H (symmetric) gave a retention time of 45.6 min.

Substance “bispecific antibody (knobs-into-holes), first chain with I253A/H310A/H435A and second chain with H435A” came in with an RT [min] (retention time on the FcRn affinity column) in assay [2] of 0 min. Take anti-HER2 antibody, L309H (symmetric): in assay [1], the retention time amounted to 45.5 min. Substance anti-HER2 antibody, N434H (symmetric) returned a retention time in assay [1] of 52 min.

As for anti-HER2 antibody, K288E (symmetric), in assay [1], the retention time turned out to be 45.2 min. The same measure, in the same setting: in the case of anti-HER2 antibody, K290H (symmetric) it was 46.2 min. As to “bispecific antibody (knobs-into-holes), first chain with I253A/H310A/H435A and second chain with I253A/H310A/H435A”, the RT [min] (retention time on the FcRn affinity column) in assay [2] is 0 min.
